Consider 125 sequences from the supplement of paper PMC9112550, “Optimization of the antimicrobial peptide Bac7 by deep mutational scanning” (BMC Biology, 2022).

This series concerns Escherichia coli TOP10. Nature of the series: shrunken log2 fold change of peptide-encoding DNA abundance (4.5 h post-induction vs induction); higher = less antimicrobial activity (less host growth inhibition). The conditions noted are these: time post-induction: 4.5 h; library: site-saturation at positions 5, 18, 19, 20.
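Note: peptides expressed intracellularly from a pBAD plasmid library in pooled LB shake-flask culture, induced with 0.3% L-arabinose, DNA abundance read by NGS, three biological replicates, DESeq2 with apeglm shrinkage.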

Regarding RRIRLRPPRLPRPRPRPCSNPRP, the “shrunken log2 fold change” value was -0.47.

Take RRIRVRPPRLPRPRPRPEHPPRP: the “shrunken log2 fold change” value is 0.0168. Under RRIRRRPPRLPRPRPRPEAHPRP stands 0.171. For RRIRQRPPRLPRPRPRPAQKPRP the value was -0.0027; for RRIRDRPPRLPRPRPRPYAEPRP, 0.247. Under RRIRGRPPRLPRPRPRPRIGPRP stands 0.779; under RRIRSRPPRLPRPRPRPIDTPRP, -0.117; under RRIRRRPPRLPRPRPRPQFVPRP, 0.153. Consider RRIRQRPPRLPRPRPRPYFFPRP, for which the “shrunken log2 fold change” value was -0.706.

On to RRIRARPPRLPRPRPRPGVVPRP, for which the “shrunken log2 fold change” value was 0.645. Under RRIRGRPPRLPRPRPRPWNSPRP stands -0.00154; under RRIRTRPPRLPRPRPRPGVPPRP, 0.202. For RRIRNRPPRLPRPRPRPLMIPRP the value was -0.0419; for RRIRGRPPRLPRPRPRPYHCPRP, -0.0643; for RRIRLRPPRLPRPRPRPESCPRP, 0.0209.

In the case of RRIRARPPRLPRPRPRPDWPPRP, the “shrunken log2 fold change” value stood at 0.98. Consider RRIRFRPPRLPRPRPRPKCEPRP, for which the “shrunken log2 fold change” value was 0.051. Under RRIRMRPPRLPRPRPRPGWHPRP stands 0.41; under RRIRSRPPRLPRPRPRPMDHPRP, -0.187. For RRIRVRPPRLPRPRPRPTWKPRP the value was -0.0442; for RRIRHRPPRLPRPRPRPEVLPRP, -0.0421; for RRIRQRPPRLPRPRPRPWVFPRP, -0.227. Consider RRIRARPPRLPRPRPRPRAQPRP, for which the “shrunken log2 fold change” value turned out to be 0.465. For RRIRRRPPRLPRPRPRPLNFPRP the value was -0.115. For RRIRERPPRLPRPRPRPYRRPRP the value was -0.0227; for RRIRTRPPRLPRPRPRPHNVPRP, -0.141. As for RRIRPRPPRLPRPRPRPVHMPRP, the “shrunken log2 fold change” value was found to be 0.215. Under RRIRGRPPRLPRPRPRPSRPPRP stands 0.624; under RRIRSRPPRLPRPRPRPFQLPRP, -0.0513; under RRIRARPPRLPRPRPRPGNWPRP, 0.346. Turning to RRIRIRPPRLPRPRPRPILNPRP, the “shrunken log2 fold change” value was -0.73. For RRIRLRPPRLPRPRPRPWPMPRP the value was -0.0188; for RRIRQRPPRLPRPRPRPQNGPRP, 0.111; for RRIRVRPPRLPRPRPRPYNYPRP, -0.845. Under RRIRWRPPRLPRPRPRPLGCPRP stands 0.438.

For RRIRYRPPRLPRPRPRPNQLPRP, the “shrunken log2 fold change” value is -0.439. Under RRIRGRPPRLPRPRPRPNTIPRP stands -0.184. On to RRIRWRPPRLPRPRPRPRMMPRP, for which the “shrunken log2 fold change” value stood at 0.0684.

Regarding RRIRWRPPRLPRPRPRPMFFPRP, the “shrunken log2 fold change” value was 0.111. For RRIRKRPPRLPRPRPRPWSKPRP the value was 0.00888.

Turning to RRIRTRPPRLPRPRPRPKWAPRP, the “shrunken log2 fold change” value came to 0.0541.

Consider RRIRMRPPRLPRPRPRPGKMPRP, for which the “shrunken log2 fold change” value came to 0.137. For RRIRRRPPRLPRPRPRPRFKPRP the value was 0.0822; for RRIRCRPPRLPRPRPRPHTCPRP, 0.0253; for RRIRTRPPRLPRPRPRPDQQPRP, -0.0173. For RRIRDRPPRLPRPRPRPSAMPRP, the “shrunken log2 fold change” value was 0.36.

Turning to RRIRTRPPRLPRPRPRPIMFPRP, the “shrunken log2 fold change” value was -0.937. Under RRIRIRPPRLPRPRPRPFMHPRP stands -0.0575. For RRIRYRPPRLPRPRPRPRIEPRP the value was 0.0242; for RRIRCRPPRLPRPRPRPFMCPRP, -0.0735; for RRIRWRPPRLPRPRPRPVHFPRP, -0.0407. Regarding RRIRTRPPRLPRPRPRPGELPRP, the “shrunken log2 fold change” value was -0.108. Under RRIRHRPPRLPRPRPRPRRNPRP stands -0.104. Under RRIRARPPRLPRPRPRPKYHPRP stands -0.103; under RRIRCRPPRLPRPRPRPNGCPRP, -0.0116; under RRIRCRPPRLPRPRPRPPGGPRP, 0.539. For RRIRFRPPRLPRPRPRPNDNPRP the value was -0.616; for RRIRIRPPRLPRPRPRPTFDPRP, -0.188. RRIRRRPPRLPRPRPRPDTAPRP: the “shrunken log2 fold change” value was -0.0709. For RRIRARPPRLPRPRPRPWYVPRP the value was -0.0927; for RRIRYRPPRLPRPRPRPEVAPRP, -0.0541. For RRIRMRPPRLPRPRPRPPYWPRP the value was 0.37; for RRIRFRPPRLPRPRPRPARSPRP, 0.336; for RRIRIRPPRLPRPRPRPHFAPRP, -0.135.

In the case of RRIRMRPPRLPRPRPRPLFYPRP, the “shrunken log2 fold change” value was -0.305. As to RRIRLRPPRLPRPRPRPNMHPRP, the “shrunken log2 fold change” value is -0.565.

With RRIRVRPPRLPRPRPRPDPTPRP, the “shrunken log2 fold change” value came to 0.106. For RRIRVRPPRLPRPRPRPAPCPRP the value was 0.168.

For RRIRMRPPRLPRPRPRPGWLPRP, the “shrunken log2 fold change” value came to 0.533. For RRIRPRPPRLPRPRPRPLCFPRP the value was 0.354. Under RRIRMRPPRLPRPRPRPSLIPRP stands -0.245; under RRIRYRPPRLPRPRPRPKPEPRP, -0.0857. For RRIRQRPPRLPRPRPRPIWQPRP the value was -0.049; for RRIRIRPPRLPRPRPRPEKLPRP, -0.048. Take RRIRQRPPRLPRPRPRPWCFPRP: the “shrunken log2 fold change” value was -0.263. Under RRIRVRPPRLPRPRPRPYSWPRP stands -0.163. For RRIRERPPRLPRPRPRPDVKPRP the value was -0.213. For RRIRSRPPRLPRPRPRPMCTPRP the value was 0.0289; for RRIRRRPPRLPRPRPRPERSPRP, 0.0187.

For the sequence RRIRARPPRLPRPRPRPKSEPRP, the “shrunken log2 fold change” value came out at 1.22.

For the sequence RRIRSRPPRLPRPRPRPSTQPRP, the “shrunken log2 fold change” value was 2.48.

Regarding RRIRNRPPRLPRPRPRPNCTPRP, the “shrunken log2 fold change” value is -0.191. On to RRIRDRPPRLPRPRPRPTLIPRP, for which the “shrunken log2 fold change” value was 0.0896. For the sequence RRIRVRPPRLPRPRPRPGIPPRP, the “shrunken log2 fold change” value is -0.103. Under RRIRDRPPRLPRPRPRPWSDPRP stands -0.0204; under RRIRSRPPRLPRPRPRPSPRPRP, 0.217.

Take RRIRGRPPRLPRPRPRPRLIPRP: the “shrunken log2 fold change” value amounted to 0.166.

For RRIRVRPPRLPRPRPRPKPTPRP, the “shrunken log2 fold change” value came to 0.707.

For RRIRVRPPRLPRPRPRPHLPPRP, the “shrunken log2 fold change” value was -0.0222. For RRIRQRPPRLPRPRPRPHHQPRP the value was 0.18.

In the case of RRIRCRPPRLPRPRPRPNFDPRP, the “shrunken log2 fold change” value is -0.179. For RRIRNRPPRLPRPRPRPLHCPRP the value was -0.168; for RRIRMRPPRLPRPRPRPELCPRP, 3.34.

In the case of RRIRERPPRLPRPRPRPEILPRP, the “shrunken log2 fold change” value was -0.159.

For RRIRRRPPRLPRPRPRPFLRPRP, the “shrunken log2 fold change” value was found to be 0.382. For RRIRDRPPRLPRPRPRPPTQPRP the value was 0.285. For the sequence RRIRLRPPRLPRPRPRPSWDPRP, the “shrunken log2 fold change” value was -0.0231. For RRIRTRPPRLPRPRPRPDWNPRP the value was -0.39; for RRIRWRPPRLPRPRPRPEYWPRP, 0.388. For RRIRGRPPRLPRPRPRPTTQPRP the value was 0.429; for RRIRMRPPRLPRPRPRPVTAPRP, 0.57; for RRIRARPPRLPRPRPRPHRRPRP, 0.212. Turning to RRIRDRPPRLPRPRPRPVQHPRP, the “shrunken log2 fold change” value was -0.012. Under RRIRKRPPRLPRPRPRPQNIPRP stands -0.21; under RRIRTRPPRLPRPRPRPRFFPRP, 0.0438; under RRIRERPPRLPRPRPRPHPDPRP, 0.0161. For RRIRSRPPRLPRPRPRPGQYPRP the value was -0.113; for RRIRHRPPRLPRPRPRPKGQPRP, -0.00141; for RRIRTRPPRLPRPRPRPHDWPRP, 0.213.

As for RRIRQRPPRLPRPRPRPFPDPRP, the “shrunken log2 fold change” value was -0.108. For RRIRDRPPRLPRPRPRPKLSPRP the value was 0.0504; for RRIRLRPPRLPRPRPRPNKPPRP, -0.0372; for RRIRSRPPRLPRPRPRPKANPRP, 0.126.

Turning to RRIRKRPPRLPRPRPRPMKLPRP, the “shrunken log2 fold change” value worked out at 0.0347. For RRIRKRPPRLPRPRPRPFPWPRP the value was 0.582.

In the case of RRIRMRPPRLPRPRPRPPWVPRP, the “shrunken log2 fold change” value stood at 0.241. As to RRIRPRPPRLPRPRPRPRIDPRP, the “shrunken log2 fold change” value was -0.0848. For RRIRERPPRLPRPRPRPSCTPRP the value was -0.815.

As for RRIRRRPPRLPRPRPRPIKCPRP, the “shrunken log2 fold change” value is -0.17. Under RRIRTRPPRLPRPRPRPDQEPRP stands 0.105; under RRIRIRPPRLPRPRPRPQRTPRP, 0.0834. Under RRIRHRPPRLPRPRPRPHNIPRP stands -0.209; under RRIRNRPPRLPRPRPRPELIPRP, -0.0327.

Consider RRIRLRPPRLPRPRPRPFSFPRP, for which the “shrunken log2 fold change” value was -0.388. For RRIRPRPPRLPRPRPRPHRFPRP the value was 0.645.
